± gives the standard deviation of the averaged measurements.
Tests used:
MCF7 = experiment: percentage of EdU-negative (G0-arrested) nuclei per well, 72 h; higher = more G0 arrest; conditions: reference: sequence is the full UniProt precursor, the tested protein was the secreted form or ectodomain
hTERT-HMEC = experiment: as above; conditions: reference: sequence is the full UniProt precursor, the tested protein was the secreted form or ectodomain
[1] = protein concentration 0.0214725 µM
[2] = protein concentration 0.214725 µM
[3] = protein concentration 0.0257143 µM
[4] = protein concentration 0.257143 µM
[5] = protein concentration 0.0195 µM
[6] = protein concentration 0.0225 µM
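Also: secreted proteins added to cultured cells, EdU pulse at the end, nuclei found by Hoechst imaging, EdU status from nuclear versus surrounding ring intensity ratio, PBS as neutral control.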

MIHGRSVLHIVASLIILHLSGATKKGTEKQTTSETQKSVQCGTWTKHAEGGIFTSPNYPSKYPPDRECIYIIEAAPRQCIELYFDEKYSIEPSWECKFDHIEVRDGPFGFSPIIGRFCGQQNPPVIKSSGRFLWIKFFADGELESMGFSARYNFTPDPDFKDLGALKPLPACEFEMGGSEGIVESIQIMKEGKATASEAVDCKWYIRAPPRSKIYLRFLDYEMQNSNECKRNFVAVYDGSSSVEDLKAKFCSTVANDVMLRTGLGVIRMWADEGSRNSRFQMLFTSFQEPPCEGNTFFCHSNMCINNTLVCNGLQNCVYPWDENHCKEKRKTSLLDQLTNTSGTVIGVTSCIVIILIIISVIVQIKQPRKKYVQRKSDFDQTVFQEVFEPPHYELCTLRGTGATADFADVADDFENYHKLRRSSSKCIHDHHCGSQLSSTKGSRSNLSTRDASILTEMPTQPGKPLIPPMNRRNILVMKHSYSQDAADACDIDEIEEVPTTSHRLSRHDKAVQRFCLIGSLSKHESEYNTTRV [Q8TDF5]
percentage of EdU-negative (MCF7; [1]): 23.53 ± 0.037%
percentage of EdU-negative (MCF7; [2]): 26.76 ± 0.058%
percentage of EdU-negative (hTERT-HMEC; [1]): 4.64 ± 0.48%
percentage of EdU-negative (hTERT-HMEC; [2]): 7.76 ± 0.38%

MIHTNLKKKFSCCVLVFLLFAVICVWKEKKKGSYYDSFKLQTKEFQVLKSLGKLAMGSDSQSVSSSSTQDPHRGRQTLGSLRGLAKAKPEASFQVWNKDSSSKNLIPRLQKIWKNYLSMNKYKVSYKGPGPGIKFSAEALRCHLRDHVNVSMVEVTDFPFNTSEWEGYLPKESIRTKAGPWGRCAVVSSAGSLKSSQLGREIDDHDAVLRFNGAPTANFQQDVGTKTTIRLMNSQLVTTEKRFLKDSLYNEGILIVWDPSVYHSDIPKWYQNPDYNFFNNYKTYRKLHPNQPFYILKPQMPWELWDILQEISPEEIQPNPPSSGMLGIIIMMTLCDQVDIYEFLPSKRKTDVCYYYQKFFDSACTMGAYHPLLYEKNLVKHLNQGTDEDIYLLGKATLPGFRTIHC
percentage of EdU-negative (MCF7; [3]): 23.7 ± 0.62%
percentage of EdU-negative (MCF7; [4]): 26.3 ± 1.7%
percentage of EdU-negative (hTERT-HMEC; [3]): 4.71 ± 0.62%
percentage of EdU-negative (hTERT-HMEC; [4]): 4.48 ± 0.15%

MIIDSSRIPSFTQLHSTMTRAPLLLLCVALVLLGHVNGATVRNEDKWKPLNNPRNRDLFFRRLQAYFKGRGLDLGTFPNPFPTNENPRPLSFQSELTASASADYEEQKNSFHNYLKG [Q6UXQ4]
percentage of EdU-negative (MCF7; [5]): 24.6 ± 2.1%
percentage of EdU-negative (MCF7; protein concentration 0.195 µM): 25.2 ± 1%
percentage of EdU-negative (hTERT-HMEC; [5]): 4.53 ± 0.63%
percentage of EdU-negative (hTERT-HMEC; protein concentration 0.195 µM): 7.36 ± 0.4%

MIIVAHVLLILLGATEILQADLLPDEKISLLPPVNFTIKVTGLAQVLLQWKPNPDQEQRNVNLEYQVKINAPKEDDYETRITESKCVTILHKGFSASVRTILQNDHSLLASSWASAELHAPPGSPGTSIVNLTCTTNTTEDNYSRLRSYQVSLHCTWLVGTDAPEDTQYFLYYRYGSWTEECQEYSKDTLGRNIACWFPRTFILSKGRDWLAVLVNGSSKHSAIRPFDQLFALHAIDQINPPLNVTAEIEGTRLSIQWEKPVSAFPIHCFDYEVKIHNTRNGYLQIEKLMTNAFISIIDDLSKYDVQVRAAVSSMCREAGLWSEWSQPIYVGNDEHKPLREWFVIVIMATICFILLILSLICKICHLWIKLFPPIPAPKSNIKDLFVTTNYEKAGSSETEIEVICYIEKPGVETLEDSVF
percentage of EdU-negative (MCF7; [6]): 25.4 ± 1.1%
percentage of EdU-negative (MCF7; protein concentration 0.225 µM): 25.9 ± 1.3%
percentage of EdU-negative (hTERT-HMEC; [6]): 4.86 ± 0.92%
percentage of EdU-negative (hTERT-HMEC; protein concentration 0.225 µM): 5.18 ± 0.52%

MILIPRMLLVLFLLLPILSSAKAQVNPAICRYPLGMSGGQIPDEDITASSQWSESTAAKYGRLDSEEGDGAWCPEIPVEPDDLKEFLQIDLHTLHFITLVGTQGRHAGGHGIEFAPMYKINYSRDGTRWISWRNRHGKQVLDGNSNPYDIFLKDLEPPIVARFVRFIPVTDHSMNVCMRVELYGCVWLDGLVSYNAPAGQQFVLPGGSIIYLNDSVYDGAVGYSMTEGLGQLTDGVSGLDDFTQTHEYHVWPGYDYVGWRNESATNGYIEIMFEFDRIRNFTTMKVHCNNMFAKGVKIFKEVQCYFRSEASEWEPNAISFPLVLDDVNPSARFVTVPLHHRMASAIKCQYHFADTWMMFSEITFQSDAAMYNNSEALPTSPMAPTTYDPMLKVDDSNTRILIGCLVAIIFILLAIIVIILWRQFWQKMLEKASRRMLDDEMTVSLSLPSDSSMFNNNRSSSPSEQGSNSTYDRIFPLRPDYQEPSRLIRKLPEFAPGEEESGCSGVVKPVQPSGPEGVPHYAEADIVNLQGVTGGNTYSVPAVTMDLLSGKDVAVEEFPRKLLTFKEKLGEGQFGEVHLCEVEGMEKFKDKDFALDVSANQPVLVAVKMLRADANKNARNDFLKEIKIMSRLKDPNIIHLLAVCITDDPLCMITEYMENGDLNQFLSRHEPPNSSSSDVRTVSYTNLKFMATQIASGMKYLSSLNFVHRDLATRNCLVGKNYTIKIADFGMSRNLYSGDYYRIQGRAVLPIRWMSWESILLGKFTTASDVWAFGVTLWETFTFCQEQPYSQLSDEQVIENTGEFFRDQGRQTYLPQPAICPDSVYKLMLSCWRRDTKNRPSFQEIHLLLLQQGDE
percentage of EdU-negative (MCF7; [6]): 26.1 ± 1%
percentage of EdU-negative (MCF7; protein concentration 0.225 µM): 25.9 ± 1.3%
percentage of EdU-negative (hTERT-HMEC; [6]): 4.96 ± 0.44%
percentage of EdU-negative (hTERT-HMEC; protein concentration 0.225 µM): 5.43 ± 1.3%

— the supplement of paper PMC11316812
